T1: MKK3b (Homo sapiens, UniProt P46734)
T1 construct: expressed in transfected cells; host or cells: HEK-293; anti-FLAG immunoprecipitate
T1 sequence (P46734 1-347): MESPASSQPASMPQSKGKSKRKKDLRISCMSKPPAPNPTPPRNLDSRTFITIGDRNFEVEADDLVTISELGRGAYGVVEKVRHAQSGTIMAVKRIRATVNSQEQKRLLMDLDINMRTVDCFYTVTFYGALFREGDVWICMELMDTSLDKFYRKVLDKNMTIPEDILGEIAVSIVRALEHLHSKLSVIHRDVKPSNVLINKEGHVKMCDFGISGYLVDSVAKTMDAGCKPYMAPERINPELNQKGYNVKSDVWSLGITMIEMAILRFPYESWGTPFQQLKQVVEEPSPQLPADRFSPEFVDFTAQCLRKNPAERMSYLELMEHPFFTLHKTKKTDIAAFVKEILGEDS

T2: JNKK1/MKK4 (Mus musculus, UniProt P47809)
T2 construct: expressed in transfected cells; host or cells: HEK-293; anti-FLAG immunoprecipitate
T2 sequence (P47809 2-397): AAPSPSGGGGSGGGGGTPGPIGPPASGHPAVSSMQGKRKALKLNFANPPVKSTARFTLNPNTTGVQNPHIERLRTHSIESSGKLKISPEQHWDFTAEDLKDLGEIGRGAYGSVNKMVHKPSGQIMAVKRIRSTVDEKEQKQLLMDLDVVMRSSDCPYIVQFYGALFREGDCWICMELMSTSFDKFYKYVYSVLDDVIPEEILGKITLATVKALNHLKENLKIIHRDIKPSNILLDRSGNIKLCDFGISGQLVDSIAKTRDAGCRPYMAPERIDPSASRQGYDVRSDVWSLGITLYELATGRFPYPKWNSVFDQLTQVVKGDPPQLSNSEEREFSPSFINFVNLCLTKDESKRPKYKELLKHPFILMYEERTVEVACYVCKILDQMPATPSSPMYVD

B1: GST-Gadd45β: full-length murine Gadd45β directly fused to GST, purified from E. coli (protein)
chain: MTLEELVASDNAVQKMQAVTAAVEQLLVAAQRQDRLTVGVYEAAKLMNVDPDSVVLCLLAIDEEEEDDIALQIHFTLIQSFCCDNDIDIVRVSGMQRLAQLLGEPAETLGTTEARDLHCLLVTNCHTDSWKSQGLVEVASYCEESRGNNQWVPYISLEER
modifications: left off: a dimerising Fc or GST
notes: full-length murine Gadd45β directly fused to GST, purified from E. coli
B2: Gadd45β: purified recombinant His6-tagged Gadd45β protein; also used generically for the recombinant Gadd45β proteins (protein, UniProt O75293 1-160, looked up)
Growth arrest and DNA …: MTLEELVACDNAAQKMQTVTAAVEELLVAAQRQDRLTVGVYESAKLMNVDPDSVVLCLLAIDEEEEDDIALQIHFTLIQSFCCDNDINIVRVSGMQRLAQLLGEPAETQGTTEARDLHCLLVTNPHTDAWKSHGLVEVASYCEESRGNNQWVPYISLQER
modifications: His6 tag
notes: purified recombinant His6-tagged Gadd45β protein; also used generically for the recombinant Gadd45β proteins
B3: His6-Gadd45β: human full-length Gadd45β purified from E. coli as His6-tagged protein (protein, UniProt O75293 1-160, looked up)
chain: B2 Growth arrest and DNA …
modifications: full-length His6 tag
notes: human full-length Gadd45β purified from E. coli as His6-tagged protein

target: T1, MKK3b; assay: Kinase assay of immunoprecipitated FLAG-MKK3b with recombinant Gadd45β proteins; format: biochemical; conditions: in vitro, even at high concentrations
Procedure: (§1) Next, the functional consequences, in vitro, of the physical interactions of Gadd45β with kinases in the JNK pathway were assessed. Murine and human, full-length Gadd45J3 proteins were purified from E. coli as GST-Gadd45β and His6-tagged Gadd45β (His6 disclosed as SEQ ID NO: 46), respectively, according to standard procedures. Prior to employing these proteins in in vitro assays, purity of all recombinant polypeptides was assured by >98%, by performing Coomassie blue staining of SDS polyacrylamide gels. Then, the ability of these proteins, as well as of control GST and His6-EF3 (His6 disclosed as SEQ ID NO: 46)proteins, to inhibit kinases in the JNK pathways was monitored in vitro. FLAG-tagged JNKK2, JNKK1, MKK3, and ASK1 were immunoprecipitated from transiently transfected 293 cells using anti-FLAG antibodies and pre-incubated for 10 minutes with increasing concentrations of recombinant proteins, prior to the addition of specific kinase substrates (i.e. GST-JNK1 with JNKK1 and JNKK2; GST-p38[…] with MKK3; GST-JNNK1 or GST-JNKK2 with ASK1). […] These findings indicate that, upon binding to Gadd45β, JNKK2 is effectively inactivated.
(§2) A question was whether Gadd45β inhibited active MKK7, in vitro. FLAG-MKK7 was immunoprecipitated from TNFα-treated or untreated 293 cells, and kinase assays were performed in the presence of purified His6-Gadd45β (His6 disclosed as SEQ ID NO: 46), GST-Gadd45β, or control proteins (FIG. 28d; see also FIG. 28g). […] Consistent with the in vivo findings (FIG. 27), the inhibitory activity of Gadd45β was specific. […] Indeed, the effects of Gadd45β on MKK7 phosphorylation by TNFα may be due inhibition of the MKK7 ability to auto-phoshorylate and/or to serve as substrate for upstream kinases. Altogether, the findings identify MKK7 as a target of Gadd45β, and of NF-[…]B, in the JNK cascade. Of interest, MKK7 is a selective activator of JNK, and its ablation abolishes JNK activation by TNFα. Thus, blockade of MKK7 is sufficient on its own to explain the effects of Gadd45β on JNK signaling—i.e. its specific and near-complete suppression of this signaling. […]

Molecule | effect on MKK3/MKK3b kinase activity
B1 | neither GST-Gadd45β nor His6-Gadd45β (His6 disclosed as SEQ ID NO: 46) had significant effects
B2 | did not hamper
B3 | neither GST-Gadd45β nor His6-Gadd45β (His6 disclosed as SEQ ID NO: 46) had significant effects

target: T2, JNKK1/MKK4; assay: Kinase assay of immunoprecipitated FLAG-JNKK1/MKK4 with recombinant Gadd45β proteins; format: biochemical; conditions: in vitro, even at high concentrations
Procedure: as §1, §2

Molecule | effect on JNKK1/MKK4 kinase activity
B1 | neither GST-Gadd45β nor His6-Gadd45β (His6 disclosed as SEQ ID NO: 46) had significant effects
B2 | did not hamper
B3 | neither GST-Gadd45β nor His6-Gadd45β (His6 disclosed as SEQ ID NO: 46) had significant effects

Source: US7326418B2, “Identification of novel factors that block programmed cell death or apoptosis by targeting JNK” (University of Chicago, priority 2001, dated 2008)
